Results reported in US20200353078A1.

T1: Human IL-33 Flag®His (human)
T1 sequence: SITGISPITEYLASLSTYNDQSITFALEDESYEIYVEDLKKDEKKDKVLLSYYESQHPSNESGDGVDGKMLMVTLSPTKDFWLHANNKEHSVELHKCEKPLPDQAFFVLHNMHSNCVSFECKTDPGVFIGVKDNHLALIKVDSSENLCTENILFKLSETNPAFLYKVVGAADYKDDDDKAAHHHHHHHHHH


target: ST2 on human umbilical vein endothelial cells (human) (UniProt Q01638); experiment: cell-based or functional assay
Sequence (Q01638 19-556): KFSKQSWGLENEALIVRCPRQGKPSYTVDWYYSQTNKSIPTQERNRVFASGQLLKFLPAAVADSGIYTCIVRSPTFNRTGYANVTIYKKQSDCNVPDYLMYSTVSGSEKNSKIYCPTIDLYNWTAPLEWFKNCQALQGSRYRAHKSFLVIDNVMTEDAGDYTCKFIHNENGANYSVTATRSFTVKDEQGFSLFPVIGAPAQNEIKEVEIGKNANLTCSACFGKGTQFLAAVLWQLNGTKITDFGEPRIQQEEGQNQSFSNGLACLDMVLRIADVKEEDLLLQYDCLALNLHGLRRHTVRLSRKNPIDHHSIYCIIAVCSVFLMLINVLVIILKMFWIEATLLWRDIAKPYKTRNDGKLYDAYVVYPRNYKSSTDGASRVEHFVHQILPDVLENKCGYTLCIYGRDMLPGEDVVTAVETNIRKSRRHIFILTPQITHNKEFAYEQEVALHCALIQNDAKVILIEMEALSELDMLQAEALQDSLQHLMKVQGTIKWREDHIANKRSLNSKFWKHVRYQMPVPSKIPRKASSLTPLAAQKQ

Row | IC50 (nM) Untreated, HUVEC NFkB translocation assay [nM] | Binder
1 | 0.19 | IL33-02 (ligand) MHHHHHHHHHHAAGLNDIFEAQKIEWHEAAIEGRSITGISPITEYLASLSTYNDQSITFALEDESYEIYVEDLKKDEKKDKVLLSYYESQHPSNESGDGVDGKMLMVTLSPTKDFWLHANNKEHSVELHKSEKPLPDQAFFVLHNMHSNCVSFECKTDPGVFIGVKDNHLALIKVDSSENLCTENILFKLSET
2 | 0.17 | IL33-16 (ligand) MHHHHHHHHHHAAGLNDIFEAQKIEWHEAAIEGRSITGISPITEYLASLSTYNDQSITFALEDESYEIYVEDLKKDEKKDKVLLSYYESQHPSNESGDGVDGKMLMVTLSPTKDFWLHANNKEHSVELHKSEKPLPDQAFFVLHNMHSNSVSFESKTDPGVFIGVKDNHLALIKVDSSENLSTENILFKLSET
3 | 0.12 | IL33-15 (ligand) MHHHHHHHHHHAAGLNDIFEAQKIEWHEAAIEGRSITGISPITEYLASLSTYNDQSITFALEDESYEIYVEDLKKDEKKDKVLLSYYESQHPSNESGDGVDGKMLMVTLSPTKDFWLHANNKEHSVELHKCEKPLPDQAFFVLHNMHSNSVSFESKTDPGVFIGVKDNHLALIKVDSSENLSTENILFKLSET
4 | 0.17 | IL33-04 (ligand) MHHHHHHHHHHAAGLNDIFEAQKIEWHEAAIEGRSITGISPITEYLASLSTYNDQSITFALEDESYEIYVEDLKKDEKKDKVLLSYYESQHPSNESGDGVDGKMLMVTLSPTKDFWLHANNKEHSVELHKCEKPLPDQAFFVLHNMHSNCVSFESKTDPGVFIGVKDNHLALIKVDSSENLCTENILFKLSET
5 | 0.08 | IL33-13 (ligand) MHHHHHHHHHHAAGLNDIFEAQKIEWHEAAIEGRSITGISPITEYLASLSTYNDQSITFALEDESYEIYVEDLKKDEKKDKVLLSYYESQHPSNESGDGVDGKMLMVTLSPTKDFWLHANNKEHSVELHKSEKPLPDQAFFVLHNMHSNSVSFECKTDPGVFIGVKDNHLALIKVDSSENLSTENILFKLSET
6 | 0.16 | IL33-03 (ligand) MHHHHHHHHHHAAGLNDIFEAQKIEWHEAAIEGRSITGISPITEYLASLSTYNDQSITFALEDESYEIYVEDLKKDEKKDKVLLSYYESQHPSNESGDGVDGKMLMVTLSPTKDFWLHANNKEHSVELHKCEKPLPDQAFFVLHNMHSNSVSFECKTDPGVFIGVKDNHLALIKVDSSENLCTENILFKLSET
7 | 0.39 | IL33-12 (ligand) MHHHHHHHHHHAAGLNDIFEAQKIEWHEAAIEGRSITGISPITEYLASLSTYNDQSITFALEDESYEIYVEDLKKDEKKDKVLLSYYESQHPSNESGDGVDGKMLMVTLSPTKDFWLHANNKEHSVELHKSEKPLPDQAFFVLHNMHSNSVSFESKTDPGVFIGVKDNHLALIKVDSSENLCTENILFKLSET
8 | 0.1 | IL33-05 (ligand) MHHHHHHHHHHAAGLNDIFEAQKIEWHEAAIEGRSITGISPITEYLASLSTYNDQSITFALEDESYEIYVEDLKKDEKKDKVLLSYYESQHPSNESGDGVDGKMLMVTLSPTKDFWLHANNKEHSVELHKCEKPLPDQAFFVLHNMHSNCVSFECKTDPGVFIGVKDNHLALIKVDSSENLSTENILFKLSET
9 | 0.14 | IL33-14 (ligand) MHHHHHHHHHHAAGLNDIFEAQKIEWHEAAIEGRSITGISPITEYLASLSTYNDQSITFALEDESYEIYVEDLKKDEKKDKVLLSYYESQHPSNESGDGVDGKMLMVTLSPTKDFWLHANNKEHSVELHKSEKPLPDQAFFVLHNMHSNCVSFESKTDPGVFIGVKDNHLALIKVDSSENLSTENILFKLSET
10 | 0.21 | IL33-08 (ligand) MHHHHHHHHHHAAGLNDIFEAQKIEWHEAAIEGRSITGISPITEYLASLSTYNDQSITFALEDESYEIYVEDLKKDEKKDKVLLSYYESQHPSNESGDGVDGKMLMVTLSPTKDFWLHANNKEHSVELHKSEKPLPDQAFFVLHNMHSNCVSFESKTDPGVFIGVKDNHLALIKVDSSENLCTENILFKLSET
11 | 0.22 | IL33-07 (ligand) MHHHHHHHHHHAAGLNDIFEAQKIEWHEAAIEGRSITGISPITEYLASLSTYNDQSITFALEDESYEIYVEDLKKDEKKDKVLLSYYESQHPSNESGDGVDGKMLMVTLSPTKDFWLHANNKEHSVELHKCEKPLPDQAFFVLHNMHSNCVSFESKTDPGVFIGVKDNHLALIKVDSSENLSTENILFKLSET
12 | 0.61 | IL33-10 (ligand) MHHHHHHHHHHAAGLNDIFEAQKIEWHEAAIEGRSITGISPITEYLASLSTYNDQSITFALEDESYEIYVEDLKKDEKKDKVLLSYYESQHPSNESGDGVDGKMLMVTLSPTKDFWLHANNKEHSVELHKCEKPLPDQAFFVLHNMHSNSVSFESKTDPGVFIGVKDNHLALIKVDSSENLCTENILFKLSET
13 | 0.2 | IL33-09 (ligand) MHHHHHHHHHHAAGLNDIFEAQKIEWHEAAIEGRSITGISPITEYLASLSTYNDQSITFALEDESYEIYVEDLKKDEKKDKVLLSYYESQHPSNESGDGVDGKMLMVTLSPTKDFWLHANNKEHSVELHKCEKPLPDQAFFVLHNMHSNSVSFECKTDPGVFIGVKDNHLALIKVDSSENLSTENILFKLSET
14 | 0.28 | IL33-06 (ligand) MHHHHHHHHHHAAGLNDIFEAQKIEWHEAAIEGRSITGISPITEYLASLSTYNDQSITFALEDESYEIYVEDLKKDEKKDKVLLSYYESQHPSNESGDGVDGKMLMVTLSPTKDFWLHANNKEHSVELHKSEKPLPDQAFFVLHNMHSNSVSFECKTDPGVFIGVKDNHLALIKVDSSENLCTENILFKLSET

target: T1, Human IL-33 Flag®His (human); experiment: HTRF competition: purified scFv titrated against human ST2-Fc for FLAG-His human IL-33

Row | IC50 (read off the curve) [nM] | Binder
15 | 100 | IL330020 scFv (scFv, part only; not given: linker, domain order and tags, V domains shown, not shown: another chain or arm of the molecule; small tags and cut ends) VH: QVQLVQSGAEVKKPGASVKVSCKASGYTFTSYGISWVRQAPGQGLEWMGWISDYQGYTKYAEKFQGRVTMTTDTSTNTAYMELRSLRSDDTAVYYCARLYSSGWIRQYHFDYWGRGTLVTVSS VL: SYELTQPPSVSVSPGQTASITCSGDNLKDKYVSWYQQKPGQAPVLVLYQDRKRPSGIPERFSGSNSGNTATLTISGTQAMDEADYYCQAWDSGTAFGGGTKVTVL

target: Human IL-33 (Axxora/Adipogen AG-40B-0038) (human) (UniProt O95760); experiment: HTRF epitope competition: purified scFv against IL330101 IgG for biotinylated human IL-33

Row | IC50 (read off the curve) [nM] | Binder
16 | 7 | IL330259 scFv (scFv, part only; not given: linker, domain order and tags, V domains shown, not shown: another chain or arm of the molecule; small tags and cut ends) VH: EVQLLESGGGLVQPGGSLRLSCAASGFTFSSYAMSWVRQAPGKGLEWVSASTPWQGSTYYADSVKGRFTISRDNSKNTLYLQMNSLRAEDTAVYYCVRVVAGYFDSWGRGTLVTVSS VL: SYVLTQPPSVSVSPGQTARITCSGDALPKQYAHWYQQKPGQAPALVIYKDTERPSGIPERFSGSSSGTTVTLTISGVQAEDEADYYCQSADSSGASRVFGGGTKVTVL
